Measurements published in a protein production outcome set (Wang et al. 2014).

Experiment: label from the status in PepcDB records

Sequence	protein production
MSSASGLRRGHPAGGEENMTETDAFYKREMFDPAEKYKMDHRRRGIALIFNHERFFWHLTLPERRGTCADRDNLTRRFSDLGFEVKCFNDLKAEELLLKIHEVSTVSHADADCFVCVFLSHGEGNHIYAYDAKIEIQTLTGLFKGDKCHSLVGKPKIFIIQACRGNQHDVPVIPLDVVDNQTEKLDTNITEVDAASVYTLPAGADFLMCYSVAEGYYSHRETVNGSWYIQDLCEMLGKYGSSLEFTELLTLVNRKVSQRRVDFCKDPSAIGKKQVPCFASMLTKKLHFFPKSNLEHHHHHH	failed
VAARPPALCKGCSHRDVYDALNEVLTEYPNGRVFSDIGCYTLGALPPYEAINSCVDMGASITMAKGAADAGLFPAVSVIGDSTFTHSGITGLLDAINENSNITVIISDNESISMTGGQHSSAYGKVEAICRGIGVDPDHIRELLPVPKNHDELCSIIREEINYEGVSVIIPRRVCIQKHARDAKAAKRAKAKE	failed
MLINKTKRAEQNLNNLPFLALQAEQIEFLGSSAEFKTQIIELIRNAKKRIYVTALYWQKDEAGQEILDEIYRVKQENPHLDVKVLIDWHRAQRNLLGAEKSATNADWYCEQRQTYQLPDDPNMFFGVPINTREVFGVLHVKGFVFDDTVLYSGASINNVYLHQFEKYRYDRYQKITHAELADSMVNFINDYLLDFSAVYPLDVTNRPRTKEIRGNIRAYRKDLAQNGEYSLKSAVKLPNVLSVSPLFGLGASGNELNQVIEDLFLQVQKKLVICTPYFNFPRTLQHKIATLLENGKRVEIIVGDKVANDFYIPPEQPFKMAGALPYLYESNLRRFCEKFETQIESGQLVVRLWRDGDNTYHLKGVWVDDRYILLTGNNLNPRAWRLDAENGLLIYDPQQQLLAQVEKEQNQIRQHTKVLKHYTELEELNQYPEPVQKLLKKFARIKADKLVKMILLEHHHHHH	not failed
MIGKHFIITGATSGLGFAITNELLQRGAHVTILARNIDKFNRIKENYFKPEHINVIKCDLMQRKDIESLQKFLNTPINGFIYSSGVGYFKSISEHSTREVVETYEVNLTNFNLLYKVIQPQLVKAAYIVGISSQAALVSQANAAHYGASKAGFSAVLNALRLEQPELKVLNVQPGPIDTPFQKNADPTLKYFKNYRHMMIQPQQLAKQIVEGIILNKIEINQPSWMQIMLKFYQLCPRTLEKLCPNLFKNKV	failed
MSVAGLKKQFHKASQLFSEKISGAEGTKLDDEFLDMERKIDVTNKVVAEILSKTTEYLQPNPAYRAKLGMLNTVSKIRGQVKTTGYPQTEGLLGDCMLKYGKELGEDSTFGNALIEVGESMKLMAEVKDSLDINVKQTFIDPLQLLQDKDLKEIGHHLKKLEGRRLDYDYKKKRVGKIPDEEVRQAVEKFEESKELAERSMFNFLENDVEQVSQLAVFIEAALDYHRQSTEILQELQSKLQMRISAASSVPRREYKPRPVKRSSSELNGVSTTSVVKTTGSNIPMDQPCCRGLYDFEPENQGELGFKEGDIITLTNQIDENWYEGMIHGESGFFPINYVEVIVPLPQ	failed
MMEQKIMEVLRRMQAILDEACLRDLKTVLQVVFEGCEISQEKRELRVPDRSWAIDLEEYLMSKALEGKSPGTVDRYRYELQRLLSYVNKAVRDITEGDISGYMRAYKAIRQVSNQTLKNVRAVYSSFFAWLRDRDRIRRNPMALVEAIKVEQKIRKPYTDEEREMLLRNCSTLRDKAMMEFFYSTAVRVSELVTLNRDDIRFTSKDLIVFGKGSKERRVYLNDRTNLYMKEYLDSRTDGSPALIVSIRRPHSRLSKTGIEDIIRRTGQRAGVEKAHPHRFRRTSLTNALNRGMPLQEAMVMAGHAKPETTMGYCTVDQEGVKYHHQKYLSA	failed
MKQMNVVLIGGGTGLSVLARGLREFPIDITAIVTVADNGGSTGKIRDVMDIPAPGDIRNVIAALSDSESILTQLFQYRFGENQVDGHSLGNLVIAGMTNITNDFGHAIKELSKVLNIKGQVIPSTNASVQLNAVMEDGEIVHGETNIPKTHKKIDRVFLEPSDVEPMNEAIEALEQADLIVLGPGSLYTSVISNLCVKGISEALLRTSAPKLYVSNVMTQPGETDNYDVKEHIDALTRQVGEPFIDFVICSSESYSKDVLQRYEEKNSKPVAVHKEQLKDSGIRVLTASNLVEISNEHYVRHNTKVLSKMIYELALELTSTIRFTPSDKKK	not failed
MGEMAPTLVLKNATYLNSVRGKWLDANIWIYQDRIVYVGQDMPAKLDDETEVVDCGQQVIVPGYIEHHAHPFQLYNPHSFANYAAAMGTTTLINDNLEHHHHHH	not failed
SATQIPSTISILATSDIHGNVLNYDYATGKAPTNTQGLAKVSSYVNSVRASKPNVMLIDDGDTIQGTPLSYYYDKIDTTSEYPLMKIMGAMKYDTWTLGNHEFNYGLPTLNRVISDARKENINVLSANTYNSDNTNFVNPYYIKTFNINGKTVNVGILGLTTKCIPDWEDPSHYAGLHFNDLVDEAKLWVPRMKAAGANVVIVAAHSGEEGAADTIPENQIKAIATNVSGIDAIVAGHAHVTVNDTSLKNPNGKTVPVVEPNKWGTFVSQIDITLDNSGNASTINTQNVKMTDSIPEDPNIVNIIQPYQNKTLDYIST	failed
MKAEKNLNKTLKISYKALFFSFALTLIKLLAGFLGNSTALIADSIRSFSELINELKKLLEVFIASKPEDWSHNYGHGKVATLFTGAGACILLFAGIESISLASQELLIFIQGRETEAPEILALSAASLTLVSREIIPLFSSKGKEIEGTLSGTGIYTRNAQIRSLLLSCFVTLGIGCTFLPGKNWVVTDSFIAALMSLYLLGTSGKLLYGTANELIEASLDEEDNKKIRKIINTTEGVTGSGELKTRKIGNGIAINACITVSDSLNIQEVAEIADRVENRLKTVYGEDIYALVKAEPDPGRNCSFRKKMEFSEEGRKENKGINTQDKMLA	failed
MYTKTKASISALLILITITLSSCSGTKNKDIYSRKNSNAAHTVATIGYDNKTYVSLKEAFKSVGGKCTLNGEGAIASKGKDIIKVSASSSTAYLNSSKIAMSANPKLKNNDIYVPMDFLNQVMDARITYSNGKLNIQTELPLKYTKAFNIKYLKGGIKKITDGNNKTVILVPKNKTVPAEYKNETVITYPVNNVLVSSATQGSLLRPLDEIKSIKTVTLKENEWEIDEIKSLLNDNKITYIGDTTSPDFEKISSSKPDVAILYGGSYGLNNMMKKFDELHINYTSDNEYLEEDPLGRLEWIKFLSAFYDKEDKAENYFNQQVSKVMATENKVSSLKKPKVAFGMVDNGKVYIPAKNSYAAKMVDMAGGDYIFKDLNNKSGYITLEDFYSKSKDADVLIYSSSKEYTPSLKSMLSAAPILKTIKPVKNKKVWCFGKDYYQAIDKTDEIIEDLASIFHPESFKGYKIKHYSHY	failed
MNAIGIVGTGAMGRGIAQIAAQAGLRVRLFDASPQAVEAARAALADTLARLAAKGRLTADQADAALARLMPAAALAELADCDLVVEAIVENLEAKRDLFRQLEAIVGPETILASNTSSLSITAIAAACRRPERVAGFHFFNPVPLMKVVEVIAGLRSAPAACDALAALAGRMGHAAVRCTDMPGFIVNHAGRGMNTEGLRVVQEGVTAFADVDAVMREQAGFRMGPFELMDLTGLDVSHPVMESIYRQFYDEPRYRPSRITAVRLAGGLLGRKTGEGFYRYADGQKPVPPEAAAPAARPKSVWVSRAHAAGHTAAQRLLLDLCVTPEDGAWPSAEALIVVTPRGLDATAAAVAEGLDGRRTVALDTLYPFAATRRRTLMTTPATDPAHRDAAHGLFAADGVPVTVIRDSGGFVAQRIVACIVNIACDIAQQRIATPADIDLAVTLGLGYPQGPLALGDTLGAGAVLEVLQNLTTLYGDPRYRPSPWLLRRARLGLSLLTPDA	failed
MKTFTLQDAGDIRRLLTERLMQSVNAGTVPWRQNIIRHGVPIHALSGQLFTGINVLLLWQSALQNGLTSNRWLTGDDLRSLGGSIIPGQRPTTIVRYTPSLSLFRVINIEQCDGLPTELRAGWPWPPAPVPGMERIEKWQRASQVPVLYRGQRPAVYLSESDRIELPGSDQGNLDSLTALLVSATGHPTRLGRSCFTGSDVPERDEYLQESLVADVGRAFLAALAGIPLAGTPMWNGELGSDPWILFKSASEAGKAVDWLEKQRLTTLPFDDVQHWQRLAAHLLTTHYGQQLDDTTLVCDSVVHQHLRYNISPGNAVNALARIYDWPRSDVAPALFILELNSVADAFASFSLNPGSLVVHRVASDIDDNKVVLEAPELETLFLPPPFAKSVDEVAANDEEEGGDPDDPGNLAALPWVRNQGRSNPHRATFIRQFQEIAPYENRWTVFSDFIHMSAAALHNRCHFVQEIEDDYLRRIKRYKKADQNRFPLLFNTLVEGMEFSASDFLGSVFMELELGDQRRGQYFTPYSVGYMMAKLQLADGLPALTSGERDFITVSDPACGAGGLIVAMAQAMLEAGFNPQKQMMAVCVDIDPVAAMMAYVQLALCGIPAMVIVGNSLSMEFRQTWRTPFWMMFGWERKWAREQERKAQQKVA	failed
MEEVIWEQYTVTLQKDSKRGFGIAVSGGRDNPHFENGETSIVISDVLPGGPADGLLQENDRVVMVNGTPMEDVLHSFAVQQLRKSGKIAAIVVKRPRKVQVAPL	not failed
MDGSFVQHSVRVLQELNKQREKGQYCDATLDVGGLVFKAHWSVLACCSHFFQRIYGDGTGGSVVLPAGFAEIFGLLLDFFYTGHLALTSGNRDQVLLAAKELRVPEAVELCQSFQPQTSVGQAQSGLGQPASQDVKSHLKEPTDLDEEEVFKTLSLASVDQEPRDTEQPQLGTPAQSSTAFLCGKLTQALKPSPSEDKESEDCKEPPRPFEAGGAPLQGESNEWEVVVQVEDDRDGDYVSEPETVLTRRKSKVIRKPCAAEPALGAGSLTAEPTDSRKGAAVPVECPTCHKKFLSKYYLKVHNRKHTGEKPFECPKCGKCYFRKENLLEHEARNCMNRSEQVFTCSVCQETFRRRMELRLHMVSHTGEMPYKCSSCSQQFMQKKDLQSHMIKLHGAPKPHAVSASQGWGSGGSGTAQSCPHLDVLPLPVSPTCSAPLVPSASCLGRSYSCTRLLSIVEKSSLCVRNAGTGPRAATGCRCTSRPSTGMKGLMSVSSAAMPSPRRPTSTCTCARTPARSLSSATSVGRPSAPKFGQAQPHPHGREAFQL	not failed
MNSELFQKLAKAQTDEERSWIVTESLLATLSPELAAAAWAAVVPHWFNAEILAALRPELQAQSSQLYTKLQALSFVEEFADRGHDVHDLTRNLMLKHLWQEHQDEFITLSQRAAEYFGRNNQQPETQIEWLYHLIVVDREWKGSEFWNLAQNWDNSFRVAELESLIAALLEQIAAERVETLAKAEVYYWAGKAKFRVYKAKEALERYEEALAFYRNIGVSEAPPVEARLGEANTLQAIGDVLQFLDRRTEALERYEEALAFYRDIGDRLGEANTLRAIGDVLQFLDRRTEALERYEEALAFYRDIGARLGEANTLQAIGDVLQFLKRSTEALERYEEALAFYRDIGDRLGEANTLRAIGDVLQFLDRRTEALERYEEALAFYRDIGARLGEANTLKAIGDVLQFLKRSTEALERYEEALAFYRDIGARLGEANTLRAIGDVLQFLDRRTEALERYEEALAFYRDIGDRLGEANTLRAIGDVLQFLKRSTEALERYEEALAFYRDIGDRLGEANTLRAIGDVLQFLKRSTEALERYEEALAFYRDIGDRLGEANTLQAIGILQDDLTVGLEYCQAALELYRQIGTKYSQSRNLIYFTSTILLKLERQTEAIDALNRAIELAKEIPYQYFVEDALAKLKKIQSSDSNI	failed
MPVLVLLLAVGTGCVSTGTNPVSGNTRAYGYSWQEEVTMGQKADKQIQSQYGVYDDEELQEYVDGVAQEVLAESHMRRPDTPERFRNTEFEFRVLDSPIINAFALPGGYVYVTRGLVAHLNNEAQLAMVLGHEIGHVAARHASQQAARQKFTQGLLLSGAVAGQVAFGGNVAENVMGLGGQAAQLLSLSYSRDNERESDRLGVEYAVRAGYDGAEGAAFFESLERVREQGGQSIPTWQSTHPDPGARQQTIPELAQTWRKKVDRPATTIDQDAYYNALEGTVLGKNPRQGFVEEGVFYQPELAFRFSIPSRWDVQNQPQQVALVQPDQSAYMIFTFSDAETPDAAARKFAGQDGLSVLDRQSTSVNGNDARRVLAEGKTQQGQVVRLLTYFIAYGDNVYQFQGTTSADRYDAYRPDFERTMTSFARLTDSEKLNRQPARIAIQAADREGAFRSFVDTDALPSDMTEEDLAIINQLDVDQVVAPDRPLKLPN	failed
